Experimental findings from US20150147274A1 (CANCER RESEARCH TECHNOLOGY, published 2015) are described below.

Assay [1] concerns the target human MET (c-Met) on cells (SKOV-3, BxPC3) (human) (UniProt P08581). The experiment in a line: cell-based or functional assay.
For assay [2], the target named is MET928 (cMET protein derived from construct 25-928) (human) (UniProt P08581). In words: Biacore SPR, MET928-coated surface, 1:1 kinetic analysis. In general terms: In SPR one partner is held on a chip, and binding of the other changes the refractive index at the surface.
Assay [3] concerns the target T1, MET928 (cMET protein derived from construct 25-928) (human, UniProt P08581 25-928).
T1 construct: MET ectodomain, residues 1-24 are the leader; produced in Lec 8 cells; background text says the ectodomain is furin-cleaved into alpha (25-307) and beta chains; biotinylated form used in selections; also called MET928 extracellular domain; Met extracellular domain
The experiment in a line: Biacore SPR, MET928-coated surface. An excerpt: Since scFv can multimerise, possibly complicating analysis, we also analysed the biological activity of monomeric 7A2 scFv. 8×His-tagged 7A2 scFv (Table 14) was expressed in P. pastoris induced with Methanol over 3 days. Conditioned media was concentrated using a Sartorius Slice Disposable (10 kD nominal molecular weight cut-off) and the scFv purified on a HisTrap column (GE Life Sciences). Monomeric 7A2 scFv (FIG. 11) was isolated by size exclusion using a Superdex 200 16/60 prep grade column (GE Life Sciences).

The target of assay [4] is T1, MET928 (cMET protein derived from …). In words: Biacore SPR, MET-928 on chip, scFv format. The protocol:
(§1) The binding characteristics of 7A2 and its derivatives were measured using a GE Healthcare Biacore biosensor.

Assay [5] deals with T2, human MET (c-Met) on cells (SKOV-3, BxPC3) (human, UniProt P08581 25-1390). In words: cell-based or functional assay.
Assay [6] addresses T1, MET928 (cMET protein derived from …). In words: Biacore SPR, MET-928 on chip, Fab format. The protocol:
as §1

For assay [7], the target named is T2, human MET (c-Met) on cells (SKOV-3, …). The experiment in a line: cell-based or functional assay. The source holds these as a separate data set.

T2 sequence (P08581 25-1390): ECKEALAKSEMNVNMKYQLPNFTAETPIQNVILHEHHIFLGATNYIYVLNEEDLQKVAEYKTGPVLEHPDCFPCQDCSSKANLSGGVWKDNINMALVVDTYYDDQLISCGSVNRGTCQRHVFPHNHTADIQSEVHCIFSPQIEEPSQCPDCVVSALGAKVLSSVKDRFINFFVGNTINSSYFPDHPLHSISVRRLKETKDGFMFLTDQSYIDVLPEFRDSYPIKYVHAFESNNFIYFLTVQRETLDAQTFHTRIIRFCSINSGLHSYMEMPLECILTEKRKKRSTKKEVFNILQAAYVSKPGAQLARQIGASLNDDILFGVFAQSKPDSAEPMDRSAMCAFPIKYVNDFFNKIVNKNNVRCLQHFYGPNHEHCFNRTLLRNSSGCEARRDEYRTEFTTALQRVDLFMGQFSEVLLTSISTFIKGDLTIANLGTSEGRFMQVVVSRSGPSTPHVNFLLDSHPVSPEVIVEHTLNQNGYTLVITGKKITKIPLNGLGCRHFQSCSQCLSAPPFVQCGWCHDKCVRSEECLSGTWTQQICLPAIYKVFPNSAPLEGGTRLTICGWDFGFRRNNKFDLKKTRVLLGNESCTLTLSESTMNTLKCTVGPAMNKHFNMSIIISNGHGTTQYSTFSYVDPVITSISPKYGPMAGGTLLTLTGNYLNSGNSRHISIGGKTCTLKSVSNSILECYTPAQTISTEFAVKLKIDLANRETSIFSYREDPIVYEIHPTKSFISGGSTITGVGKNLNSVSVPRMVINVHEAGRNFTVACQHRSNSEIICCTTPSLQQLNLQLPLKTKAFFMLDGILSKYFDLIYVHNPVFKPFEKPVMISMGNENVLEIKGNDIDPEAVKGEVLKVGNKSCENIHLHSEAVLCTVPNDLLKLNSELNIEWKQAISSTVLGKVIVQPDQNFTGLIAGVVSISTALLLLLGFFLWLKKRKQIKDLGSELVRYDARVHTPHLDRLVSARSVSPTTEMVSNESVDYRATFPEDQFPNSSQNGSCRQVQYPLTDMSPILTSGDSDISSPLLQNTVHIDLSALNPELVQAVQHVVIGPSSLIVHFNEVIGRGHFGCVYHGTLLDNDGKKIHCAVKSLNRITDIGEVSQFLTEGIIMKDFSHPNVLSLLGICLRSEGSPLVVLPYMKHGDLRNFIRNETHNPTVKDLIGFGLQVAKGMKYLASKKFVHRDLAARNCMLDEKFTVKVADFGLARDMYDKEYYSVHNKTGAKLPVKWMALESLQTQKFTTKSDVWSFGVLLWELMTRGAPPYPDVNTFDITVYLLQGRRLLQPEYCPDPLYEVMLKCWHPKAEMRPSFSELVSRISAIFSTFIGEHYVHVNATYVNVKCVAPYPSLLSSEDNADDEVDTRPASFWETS
Chain of human MET (c-Met) on cells (SKOV-3, BxPC3) (human) (P08581 25-1390): as above
Chain of MET928 (cMET protein derived from construct 25-928) (human) (P08581 25-928): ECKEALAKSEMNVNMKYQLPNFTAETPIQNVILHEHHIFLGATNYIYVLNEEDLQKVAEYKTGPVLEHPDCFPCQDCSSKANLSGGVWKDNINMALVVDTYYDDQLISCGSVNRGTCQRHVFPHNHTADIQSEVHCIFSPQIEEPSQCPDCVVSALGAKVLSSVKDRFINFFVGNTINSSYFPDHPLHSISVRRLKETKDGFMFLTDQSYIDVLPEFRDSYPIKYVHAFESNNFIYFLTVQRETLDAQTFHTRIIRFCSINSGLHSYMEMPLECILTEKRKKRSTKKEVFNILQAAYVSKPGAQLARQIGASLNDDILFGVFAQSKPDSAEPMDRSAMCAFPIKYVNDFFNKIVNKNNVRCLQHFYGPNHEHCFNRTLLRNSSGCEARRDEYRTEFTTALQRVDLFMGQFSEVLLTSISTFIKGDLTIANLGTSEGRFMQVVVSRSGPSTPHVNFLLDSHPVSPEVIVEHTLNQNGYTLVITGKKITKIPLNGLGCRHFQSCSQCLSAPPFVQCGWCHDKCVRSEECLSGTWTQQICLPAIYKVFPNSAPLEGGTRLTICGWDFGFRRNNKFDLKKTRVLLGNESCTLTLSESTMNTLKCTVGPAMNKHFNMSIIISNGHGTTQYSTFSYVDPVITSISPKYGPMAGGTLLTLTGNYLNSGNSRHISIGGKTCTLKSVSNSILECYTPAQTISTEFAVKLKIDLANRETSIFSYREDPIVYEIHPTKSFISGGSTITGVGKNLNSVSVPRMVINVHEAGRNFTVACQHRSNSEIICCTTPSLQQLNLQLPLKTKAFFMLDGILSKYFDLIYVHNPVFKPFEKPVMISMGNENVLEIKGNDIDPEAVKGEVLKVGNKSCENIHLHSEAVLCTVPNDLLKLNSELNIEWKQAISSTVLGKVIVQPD
T1 sequence (P08581 25-928): as above

The Kd is a measure of binding affinity in units of concentration. The low end stands for a tighter complex, the high end for a looser complex. Usually koff stands for a measure of how fast the partners let go of each other. The kon is the rate constant with which the complex forms. A lower kon goes with slow association. In assay [1], 5D5 Fab (His-tagged) gave a Fab concentration (nanomolar) giving 50% inhibition of HGF/SF-induced SKOV-3 migration, MEAN of 101 nM and a Fab concentration (nanomolar) giving 50% inhibition of HGF/SF-induced SKOV-3 migration, MEDIAN of 91 nM. For the same molecule, in assay [2], the equilibrium dissociation constant (Kd) amounted to 6.9 nM, the koff was 0.00081 s⁻¹ and the kon stood at 120000 M⁻¹ s⁻¹.

In assay [1], 5D5 scFv displayed an IC50 (nM), inhibition of HGF/SF-induced migration of SKOV-3 cells, Assay 1 of 116 nM; an IC50 (nM), inhibition of HGF/SF-induced migration of SKOV-3 cells, Assay 2 of 83.6 nM; an IC50 (nM), inhibition of HGF/SF-induced migration of SKOV-3 cells, Mean of 99.6 nM.

B1: monomeric 7A2 scFv (8xHis-tagged, expressed in P. pastoris) (scFv)
scFv: EAEAQMQLVQSGAEVKKPGAPVKVSCKVSGYTFTDYYMHWVQQAPGKGLEWMGLVDPEDGETIYAEKFQGRVTITADTSTDTAYMELSSLRSEDTAVYYCATDATTPYYGMDVWGQGTLVTVSSLEGGGGSGGGGSGGGASDIQMTQSPSSLSASVGDRVTITCQASQDISNYLNWYQQKPGRAPKVLIYDASNLETGVPSRFSGSGSGTEFTLTISNLRPDDFATYYCQQGDSFPLTFGGGTKVEIKRPRHHHHHHHH
notes: Monomer isolated by size exclusion chromatography
In assay [3], B1 gave a Kd of 3.62 nM, a koff of 0.00212 s⁻¹ and a kon of 586000 M⁻¹ s⁻¹.

B2: 7A2 scFv (expressed in E. coli, 6xHis/tri-Flag tags) (scFv)
scFv: QMQLVQSGAEVKKPGAPVKVSCKVSGYTFTDYYMHWVQQAPGKGLEWMGLVDPEDGETIYAEKFQGRVTITADTSTDTAYMELSSLRSEDTAVYYCATDATTPYYGMDVWGQGTLVTVSSLEGGGGSGGGGSGGGASDIQMTQSPSSLSASVGDRVTITCQASQDISNYLNWYQQKPGRAPKVLIYDASNLETGVPSRFSGSGSGTEFTLTISNLRPDDFATYYCQQGDSFPLTFGGGTKVEIK
notes: also called 084-G02; antibody 7A2; not shown: 6xHis/tri-FLAG tags of pSANG10-3F
On to B2, for which, in assay [4], the equilibrium dissociation constant (Kd) was 12.3 nM, the koff amounted to 0.646 s⁻¹ and the kon was found to be 5.25e+07 M⁻¹ s⁻¹. In addition, in assay [5], the “IC50 (nM), inhibition of HGF/SF-induced migration of SKOV-3 cells, Assay 1” value turned out to be 2.1 nM; the “IC50 (nM), inhibition of HGF/SF-induced migration of SKOV-3 cells, Assay 2” value was determined as 2.5 nM; the “IC50 (nM), inhibition of HGF/SF-induced migration of SKOV-3 cells, Mean” value was found to be 2.3 nM.

B3: 7A2 Fab (His- and FLAG-tagged, hinged format) (Fab, V domains shown)
VH: QMQLVQSGAEVKKPGAPVKVSCKVSGYTFTDYYMHWVQQAPGKGLEWMGLVDPEDGETIYAEKFQGRVTITADTSTDTAYMELSSLRSEDTAVYYCATDATTPYYGMDVWGQGTLVTVSS
VL: DIQMTQSPSSLSASVGDRVTITCQASQDISNYLNWYQQKPGRAPKVLIYDASNLETGVPSRFSGSGSGTEFTLTISNLRPDDFATYYCQQGDSFPLTFGGGTKVEIK
notes: Fab from pBIOCAM7-3F in HEK293 cells, hinged format (Leu-Glu after VH), hexahistidine and tri-FLAG tags at the C-terminus of the heavy chain
In assay [6], B3 showed a dissociation constant (Kd) of 77.3 nM, an off-rate (koff) of 0.0882 s⁻¹ and an on-rate constant (kon) of 1.14e+06 M⁻¹ s⁻¹. Besides, in assay [7], the “IC50, inhibition of HGF/SF-induced migration of SKOV-3 cells, Assay 1” value (shortened to “IC50, inhibition … Assay 1”) was determined as 387 nM; the “IC50, inhibition of HGF/SF-induced migration of SKOV-3 cells, Assay 2” value (from here on “IC50, inhibition … Assay 2”) came to 493 nM; the “IC50, inhibition of HGF/SF-induced migration of SKOV-3 cells, Assay 3” value (“IC50, inhibition … Assay 3” for short) came to 278 nM; the “Mean IC50, inhibition of HGF/SF-induced migration of SKOV-3 cells” value (“Mean IC50, inhibition” for short) worked out at 386 nM.

B4: 107_A07 Fab (His/tri-FLAG tagged, hinged) (Fab, V domains shown)
VH: QMQLVQSGAEVKKPGAPVKVSCKVSGYTFTDYYMHWVQQAPGKGLEWMGLVDPEDGETIYAEKFQGRVTITADTSTDTAYMELSSLRSEDTAVYYCATDATTPYWGMMWWGQGTLVTVSS
VL: DIQMTQSPSSLSASVGDRVTITCQASQDISNYLNWYQQKPGRAPKVLIYDASNLETGVPSRFSGSGSGTEFTLTISNLRPDDFATYYCQQGDSFPLTFGGGTKVEIK
notes: Fab from pBIOCAM7-3F in HEK293 cells, hinged format (Leu-Glu after VH), hexahistidine and tri-FLAG tags on the heavy chain
In assay [6], B4 gave an equilibrium dissociation constant (Kd) of 1.23 nM, an off-rate constant (koff) of 0.00116 s⁻¹ and an on-rate (kon) of 949000 M⁻¹ s⁻¹. Besides, in assay [7], the “IC50, inhibition … Assay 1” value is 9.7 nM; the “IC50, inhibition … Assay 2” value turned out to be 9.2 nM; the “IC50, inhibition … Assay 3” value amounted to 3.1 nM; the “Mean IC50, inhibition” value is 7.4 nM.

B5: 111_D06 Fab (His/tri-FLAG tagged, hinged) (Fab, V domains shown)
VH: QMQLVQSGAEVKKPGAPVKVSCKVSGYTFTDYYMHWVQQAPGKGLEWMGLVDPEDGETIYAEKFQGRVTITADTSTDTAYMELSSLRSEDTAVYYCATDATTPYWGMWQWGQGTLVTVSS
VL: DIQMTQSPSSLSASVGDRVTITCQASQDISNYLNWYQQKPGRAPKVLIYDASNLETGVPSRFSGSGSGTEFTLTISNLRPDDFATYYCQQGDSFPLTFGGGTKVEIK
notes: Fab from pBIOCAM7-3F, hinged, hexahistidine and tri-FLAG tags on the heavy chain
In assay [6], B5 displayed a dissociation constant (Kd) of 2.29 nM, a koff of 0.00197 s⁻¹ and a kon of 860000 M⁻¹ s⁻¹.

B6: 107_A08 Fab (His/tri-FLAG tagged, hinged) (Fab, V domains shown)
VH: QMQLVQSGAEVKKPGAPVKVSCKVSGYTFTDYYMHWVQQAPGKGLEWMGLVDPEDGETIYAEKFQGRVTITADTSTDTAYMELSSLRSEDTAVYYCATDATTPYWGMVEWGQGTLVTVSS
VL: DIQMTQSPSSLSASVGDRVTITCQASQDISNYLNWYQQKPGRAPKVLIYDASNLETGVPSRFSGSGSGTEFTLTISNLRPDDFATYYCQQGDSFPLTFGGGTKVEIK
notes: as for B5
For B6, in assay [6], the Kd stood at 2.29 nM, the koff was determined as 0.00192 s⁻¹ and the kon amounted to 838000 M⁻¹ s⁻¹. In assay [7], the “IC50, inhibition … Assay 1” value turned out to be 10.5 nM and the “Mean IC50, inhibition” value is 10.5 nM.

B7: 110_A01 Fab (His/tri-FLAG tagged, hinged) (Fab, V domains shown)
VH: QMQLVQSGAEVKKPGAPVKVSCKVSGYTFTDYYMHWVQQAPGKGLEWMGLVDPEDGETIYAEKFQGRVTITADTSTDTAYMELSSLRSEDTAVYYCATDATTPYWFPYLWGQGTLVTVSS
VL: DIQMTQSPSSLSASVGDRVTITCQASQDISNYLNWYQQKPGRAPKVLIYDASNLETGVPSRFSGSGSGTEFTLTISNLRPDDFATYYCQQGDSFPLTFGGGTKVEIK
notes: as for B5
In assay [6], B7 returned a dissociation constant Kd of 1.23 nM, a koff of 0.00137 s⁻¹ and an association rate constant (kon) of 1.12e+06 M⁻¹ s⁻¹. Also, in assay [7], the “IC50, inhibition … Assay 1” value came to 9.6 nM; the “IC50, inhibition … Assay 2” value is 27 nM; the “IC50, inhibition … Assay 3” value worked out at 2.6 nM; the “Mean IC50, inhibition” value was found to be 13.1 nM.

B8: 110_A12 Fab (His/tri-FLAG tagged, hinged) (Fab, V domains shown)
VH: QMQLVQSGAEVKKPGAPVKVSCKVSGYTFTDYYMHWVQQAPGKGLEWMGLVDPEDGETIYAEKFQGRVTITADTSTDTAYMELSSLRSEDTAVYYCATDATTPYWFPREWGQGTLVTVSS
VL: DIQMTQSPSSLSASVGDRVTITCQASQDISNYLNWYQQKPGRAPKVLIYDASNLETGVPSRFSGSGSGTEFTLTISNLRPDDFATYYCQQGDSFPLTFGGGTKVEIK
notes: as for B5
As to B8, in assay [6], the Kd is 2.79 nM, the koff was 0.00161 s⁻¹ and the kon turned out to be 577000 M⁻¹ s⁻¹.

B9: 107_A01 Fab (His/tri-FLAG tagged, hinged) (Fab, V domains shown)
VH: QMQLVQSGAEVKKPGAPVKVSCKVSGYTFTDYYMHWVQQAPGKGLEWMGLVDPEDGETIYAEKFQGRVTITADTSTDTAYMELSSLRSEDTAVYYCATDATTPYWGMVSWGQGTLVTVSS
VL: DIQMTQSPSSLSASVGDRVTITCQASQDISNYLNWYQQKPGRAPKVLIYDASNLETGVPSRFSGSGSGTEFTLTISNLRPDDFATYYCQQGDSFPLTFGGGTKVEIK
notes: as for B5
B9: in assay [6], the Kd is 1.43 nM, the koff is 0.00123 s⁻¹ and the on-rate constant (kon) came out at 863000 M⁻¹ s⁻¹. Moreover, in assay [7], the “IC50, inhibition … Assay 1” value was found to be 9.7 nM; the “IC50, inhibition … Assay 3” value was found to be 11.4 nM; the “Mean IC50, inhibition” value was found to be 10.6 nM.
